Literature values as cited in paper PMC7083049.

Biological target: histone H4 (Homo sapiens) (UniProt P62805)

For “JMJD2A Tudor domains (from UniProt O75164)”, the Kd is given as 2000 nM.
